These results are taken from the RNAGym collection of RNA variant scans (doi:10.1093/molbev/msab373).

B1: Azoarcus group I ribozyme (parent)
chain: GUGCCUUGCGCCGGGAAACCACGCAAGGGAUGGUGUCAAAUUCGGCGAAACCUAAGCGCCCGCCCGGGCGUAUGGCAACGCCGAGCCAAGCUUCGGCGCCUGCGCCGAUGAAGGUGUAGAGACUAGACGGCACCCACCUAAGGCAAACGCUAUGGUGAAGGCAUAGUCCAGGGAGUGGCGAAAGUCACACAAACCGG

Variants of B1 are the subject of the data set. Description: reverse-splicing fitness (ratio to wild type); higher = more active; in vitro selection; Mg2+ level not given. In outline:
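An in vitro group I ribozyme library with randomized positions was T7-transcribed and gel-purified. In triplicate, 10 pmol RNA in EPPS pH 7.5 was reacted with 50 pmoles of a 30-nt RNA substrate for 1 h at 37 °C across several added MgCl2 levels (1–48 mM), then stopped with EDTA. Products were reverse transcribed from a substrate-complementary primer, PCR-amplified and sequenced (HiSeq 4000). Fitness is a variant's read proportion after selection over that before, normalised to wild type.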
For the variant C82U A120C A145U C150A C169A U176G, the reverse-splicing fitness is 0.00386.

On to C82U A120C A145U C150A C169A U176A, for which the reverse-splicing fitness is 0.0094.

As to C82U A120C A145U C150A C169A U176C, the reverse-splicing fitness is 0.00669.

Take C82U A111U A145U C150G C169U U176A: the reverse-splicing fitness worked out at 0.00893.

Take C82U A111U A145U C150G C169U U176G: the reverse-splicing fitness was determined as 0.00616.

For C82U A111U A145U C150G C169U U176C, the reverse-splicing fitness was found to be 0.0107.

For the variant C82U A111U C150A C169A U176G, the reverse-splicing fitness is 0.00696.

With C82U A111U C150A C169A U176A, the reverse-splicing fitness worked out at 0.0195.

As for C82U A111U C150A C169A U176C, the reverse-splicing fitness came out at 0.0168.

For C82U A111U A145U C150G C169G U176G, the reverse-splicing fitness was determined as 0.00587.

On to C82U A111U A145U C150G C169G U176C, for which the reverse-splicing fitness stood at 0.00578.

As for C82U A111U A145U C150G C169G U176A, the reverse-splicing fitness came to 0.00698.

For the variant C82U A120C A145U C150U U176A, the reverse-splicing fitness was 0.0328.

For C82U A120C A145U C150U U176C, the reverse-splicing fitness was determined as 0.0537.

Take C82U A120C A145U C150U U176G: the reverse-splicing fitness worked out at 0.00795.

As to C82U A111U A145U C150A C169A, the reverse-splicing fitness is 0.0089.

Consider C82U A111U A145U C150A C169G, for which the reverse-splicing fitness came out at 0.00727.

C82U A111U A145U C150A C169U: the reverse-splicing fitness worked out at 0.0106.

With C82U A120C A145G C169A U176G, the reverse-splicing fitness came out at 0.00317.

Regarding C82U A120C A145G C169A U176C, the reverse-splicing fitness was determined as 0.0219.

With C82U A120C A145G C169A U176A, the reverse-splicing fitness came out at 0.0158.

Turning to C82U A111U A145U C150U C169U, the reverse-splicing fitness is 0.0104.

As to C82U A111U A145U C150U C169G, the reverse-splicing fitness worked out at 0.00898.

As to C82U A111U A145U C150U C169A, the reverse-splicing fitness was 0.00818.

Turning to C82U A111U C169A, the reverse-splicing fitness is 0.00848.

With C82U A111U C169G, the reverse-splicing fitness worked out at 0.00886.

C82U A111U C169U: the reverse-splicing fitness is 0.0122.

Consider C82U A120C A145U C169A U176A, for which the reverse-splicing fitness was 0.00753.

In the case of C82U A120C A145U C169A U176G, the reverse-splicing fitness stood at 0.00364.

Turning to C82U A120C A145U C169A U176C, the reverse-splicing fitness was 0.00593.

C82U A120C A145C C150G U176G: the reverse-splicing fitness amounted to 0.00307.

Turning to C82U A120C A145C C150G U176C, the reverse-splicing fitness came to 0.0126.

Consider C82U A120C A145C C150G U176A, for which the reverse-splicing fitness was found to be 0.00639.

C82U A120C A145U C150G C169U: the reverse-splicing fitness worked out at 0.00863.

As to C82U A120C A145U C150G C169A, the reverse-splicing fitness came to 0.00827.

Consider C82U A120C A145U C150G C169G, for which the reverse-splicing fitness was 0.0059.

For C82U A120C A145U C150G C169G U176G, the reverse-splicing fitness turned out to be 0.00365.

On to C82U A120C A145U C150G C169G U176A, for which the reverse-splicing fitness is 0.00652.

C82U A120C A145U C150G C169G U176C: the reverse-splicing fitness was 0.00491.

C82U A111U A145G C169U U176G: the reverse-splicing fitness stood at 0.0055.

Consider C82U A111U A145G C169U U176A, for which the reverse-splicing fitness came out at 0.0135.

Turning to C82U A111U A145G C169U U176C, the reverse-splicing fitness amounted to 0.0145.

C82U A120C A145G C150A U176G: the reverse-splicing fitness was 0.00716.

As for C82U A120C A145G C150A U176C, the reverse-splicing fitness stood at 0.0295.

For C82U A120C A145G C150A U176A, the reverse-splicing fitness was determined as 0.0152.

Regarding C82U A120C A145G C150A C169U U176C, the reverse-splicing fitness is 0.0166.

For the variant C82U A120C A145G C150A C169U U176G, the reverse-splicing fitness was 0.0043.

C82U A120C A145G C150A C169U U176A: the reverse-splicing fitness is 0.0136.

With C82U A111U A145G C150U U176G, the reverse-splicing fitness came to 0.0188.

In the case of C82U A111U A145G C150U U176C, the reverse-splicing fitness amounted to 0.12.

Consider C82U A111U A145G C150U U176A, for which the reverse-splicing fitness was found to be 0.0765.

Regarding C82U A120C A145C C169G U176A, the reverse-splicing fitness is 0.0129.

On to C82U A120C A145C C169G U176G, for which the reverse-splicing fitness came out at 0.00341.

Take C82U A120C A145C C169G U176C: the reverse-splicing fitness is 0.00783.

Regarding C82U A120C A145U C150U C169A U176C, the reverse-splicing fitness turned out to be 0.00582.

Regarding C82U A120C A145U C150U C169A U176A, the reverse-splicing fitness amounted to 0.0108.

With C82U A120C A145U C150U C169A U176G, the reverse-splicing fitness stood at 0.00423.

On to C82U A111U A145U C150U U176A, for which the reverse-splicing fitness is 0.0674.

Take C82U A111U A145U C150U U176C: the reverse-splicing fitness stood at 0.103.

Turning to C82U A111U A145U C150U U176G, the reverse-splicing fitness is 0.0202.

As to C82U A120C A145G C150G C169A, the reverse-splicing fitness came to 0.00952.

For the variant C82U A120C A145G C150G C169G, the reverse-splicing fitness is 0.00749.

Turning to C82U A120C A145G C150G C169U, the reverse-splicing fitness was determined as 0.0108.

As to C82U A111U A145G C169A U176A, the reverse-splicing fitness was 0.0191.

Take C82U A111U A145G C169A U176G: the reverse-splicing fitness worked out at 0.00582.

With C82U A111U A145G C169A U176C, the reverse-splicing fitness amounted to 0.0257.

As for C82U A120C A145C C150U C169G, the reverse-splicing fitness was found to be 0.00596.

For the variant C82U A120C A145C C150U C169A, the reverse-splicing fitness was found to be 0.00607.

For the variant C82U A120C A145C C150U C169U, the reverse-splicing fitness worked out at 0.0104.

In the case of C82U A111U C150G C169U, the reverse-splicing fitness stood at 0.0095.

For C82U A111U C150G C169A, the reverse-splicing fitness came out at 0.00799.

Consider C82U A111U C150G C169G, for which the reverse-splicing fitness came to 0.00698.

With C82U A111U A145U C169U U176A, the reverse-splicing fitness is 0.0125.

In the case of C82U A111U A145U C169U U176G, the reverse-splicing fitness turned out to be 0.00446.

As for C82U A111U A145U C169U U176C, the reverse-splicing fitness was 0.0127.

In the case of C82U A111U C150G U176G, the reverse-splicing fitness came out at 0.00369.

Turning to C82U A111U C150G U176A, the reverse-splicing fitness amounted to 0.00833.

In the case of C82U A111U C150G U176C, the reverse-splicing fitness worked out at 0.0152.

In the case of C82U A120C A145G C150U C169G U176C, the reverse-splicing fitness amounted to 0.0155.

Regarding C82U A120C A145G C150U C169G U176G, the reverse-splicing fitness amounted to 0.00466.

Turning to C82U A120C A145G C150U C169G U176A, the reverse-splicing fitness was 0.0128.

Consider C82U A111U A145U, for which the reverse-splicing fitness was determined as 0.329.

Turning to C82U A120C A145C C169A U176G, the reverse-splicing fitness is 0.00299.
